Test results taken from article PMC10371762 (Bioactive Materials, 2023).

Columns and labels:
Assay in all cases: SPR
[1] = molecular target: T1, human BMPR-II extracellular domain (human, UniProt Q13873 32-150, biotinylated at a 1:1 molar stoichiometric ratio using Sulfo-NHS-LC-biotin)
T1 sequence: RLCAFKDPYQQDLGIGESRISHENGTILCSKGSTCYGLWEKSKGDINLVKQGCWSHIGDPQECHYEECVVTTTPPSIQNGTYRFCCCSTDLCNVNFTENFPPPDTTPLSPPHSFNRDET

Noggin = molecular target: T2, Noggin (UniProt Q13253 28-232, biotinylated)
T2 sequence: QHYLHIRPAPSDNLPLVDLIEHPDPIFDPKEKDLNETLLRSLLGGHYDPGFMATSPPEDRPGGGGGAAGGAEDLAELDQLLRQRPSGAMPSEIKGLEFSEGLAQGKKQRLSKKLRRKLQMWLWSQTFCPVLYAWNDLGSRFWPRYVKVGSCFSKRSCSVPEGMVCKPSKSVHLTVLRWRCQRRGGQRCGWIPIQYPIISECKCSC

[2] = molecular target: human ALK1 extracellular domain (human, UniProt P37023 22-118, biotinylated at a 1:1 molar stoichiometric ratio using Sulfo-NHS-LC-biotin)
Sequence of human ALK1 extracellular domain (P37023 22-118): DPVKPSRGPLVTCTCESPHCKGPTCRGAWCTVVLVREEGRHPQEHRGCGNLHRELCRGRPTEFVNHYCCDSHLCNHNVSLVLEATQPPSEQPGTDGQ

B1: BMP2 WT (ligand)
chain: QAKHKQRKRLKSSCKRHPLYVDFSDVGWNDWIVAPPGYHAFYCHGECPFPLADHLNSTNHAIVQTLVNSVNSKIPKACCVPTELSAISMLYLDENEKVVLKNYQDMVVEGCGCR
Kd [1]: 66.9 nM | Kd (Noggin): 1.2 nM

B2: BMP9 WT (ligand)
chain: SAGAGSHCQKTSLRVNFEDIGWDSWIIAPKEYEAYECKGGCFFPLADDVTPTKHAIVQTLVHLKFPTKVGKACCVPTKLSPISVLYKDDMGVPTLKYHYEGMSVAECGCR
Kd [1]: 13.3 nM

B3: BMP9 HB (ligand)
chain: MAQAHKHQRKRLKSSCQKTSLRVNFEDIGWDSWIIAPKEYEAYECKGGCFFPLADDVTPTKHAIVQTLVHLKFPTKVGKACCVPTKLSPISVLYKDDMGVPTLKYHYEGMSVAECGCR
Kd [2]: 5.59 nM | Kd [1]: 11.6 nM
